The supplement of paper PMC9233669
Variants at the floor of the assay were thinned out.

Experiments:
biotinyl-Phe-oxazolone = assay: self-aminoacylation, catalytic enhancement (BFO) (fold over background); higher = more active; k-Seq, kA / k0A0; sequences stand for … in GGGAAUGGAUCCACAUCUACGAAUUC…UUCACUGCAGACUUGACGAAGCUG
How it was run: (§1)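 Mutagenized RNA pools with a 21-nt variable region (0.43 μM) reacted with each biotinyl-aminoacyl-oxazolone at 2–1250 μM. Reactions ran in 50 μL HEPES/NaCl/KCl/MgCl2/CaCl2 buffer with 5% acetonitrile, pH 6.9–7.0, for 90 minutes at room temperature. Streptavidin-captured RNA was quantified by triplicate qPCR and Illumina sequencing, and per-sequence fraction reacted was fit to a pseudo-first-order model with 1000 bootstraps. Catalytic enhancement is median kA divided by the uncatalyzed rate, the low-activity peak of a bimodal Gaussian fit.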

biotinyl-Ile-oxazolone = assay: self-aminoacylation, catalytic enhancement (BIO) (fold over background); higher = more active; k-Seq, kA / k0A0; sequences stand for … in GGGAAUGGAUCCACAUCUACGAAUUC…UUCACUGCAGACUUGACGAAGCUG
How it was run: as §1

biotinyl-Met-oxazolone = assay: self-aminoacylation, catalytic enhancement (BMO) (fold over background); higher = more active; k-Seq, kA / k0A0; sequences stand for … in GGGAAUGGAUCCACAUCUACGAAUUC…UUCACUGCAGACUUGACGAAGCUG
How it was run: as §1

biotinyl-Val-oxazolone = assay: self-aminoacylation, catalytic enhancement (BVO) (fold over background); higher = more active; k-Seq, kA / k0A0; sequences stand for … in GGGAAUGGAUCCACAUCUACGAAUUC…UUCACUGCAGACUUGACGAAGCUG
How it was run: as §1

biotinyl-Leu-oxazolone = assay: self-aminoacylation, catalytic enhancement (BLO) (fold over background); higher = more active; k-Seq, kA / k0A0; sequences stand for … in GGGAAUGGAUCCACAUCUACGAAUUC…UUCACUGCAGACUUGACGAAGCUG
How it was run: as §1

biotinyl-Trp-oxazolone = assay: self-aminoacylation, catalytic enhancement (BWO) (fold over background); higher = more active; k-Seq, kA / k0A0; sequences stand for … in GGGAAUGGAUCCACAUCUACGAAUUC…UUCACUGCAGACUUGACGAAGCUG
How it was run: as §1

Sequence	self-aminoacylation (biotinyl-Phe-oxazolone)	self-aminoacylation (biotinyl-Ile-oxazolone)	self-aminoacylation (biotinyl-Met-oxazolone)	self-aminoacylation (biotinyl-Val-oxazolone)	self-aminoacylation (biotinyl-Leu-oxazolone)	self-aminoacylation (biotinyl-Trp-oxazolone)
AUUCACCUCGGUCUUCGGGUG [Fam2.2 aminoacylation ribozyme variant]	33	3.77	3.71	4.01	6.72	4.87
AUUACUCUGGACAUCGAGUGA [Fam2.1 aminoacylation ribozyme variant]	30.9	2.93	5.55	2.83	6.1	8.33
CUUACCCUGGUCAUCGACUGA [Fam2.1 aminoacylation ribozyme variant]	0.459	1.1	0.673	0.739	0.833	1.31
CUACUUCGAACAAUCGGUCGG [Fam1A.1 aminoacylation ribozyme variant]	2.37	1.02	1.34	0.922	1.41	0.974
CUACUUCAAACAAUCCGUCUC [Fam1A.1 aminoacylation ribozyme variant]	1.18	0.634	0.471	0.751	0.44	0.858
AAGUUUGCUAAUACUCGCUAG [Fam3.1 aminoacylation ribozyme variant]	0.624	0.63	0.532	0.507	0.594	0.445
CUACUUCGAACAAUCGGUCCG [Fam1A.1 aminoacylation ribozyme variant]	2.05	0.879	1.09	0.738	0.865	0.959
AAUUUUGCUAAUAGUCGCAGG [Fam3.1 aminoacylation ribozyme variant]	2.65	1.89	1.76	1.83	1.98	2.05
CCACACUUCAAGCGAUCGGUC [Fam1B.1 aminoacylation ribozyme variant]	1.72	0.887	0.743	1.02	0.815	1.51
CCAUACUUCAAGCACUCGGUC [Fam1B.1 aminoacylation ribozyme variant]	1.11	1.01	0.904	1.07	0.962	0.69
CCACACUUCAAGCUAUUGGUC [Fam1B.1 aminoacylation ribozyme variant]	0.896	0.797	0.643	0.759	0.595	0.661
AUUCACGUAGGUCAUCGGGUU [Fam2.2 aminoacylation ribozyme variant]	14.9	2.03	2.4	2.74	2.54	2.93
AAUACCCUAGUCAUCGAGUGA [Fam2.1 aminoacylation ribozyme variant]	15.4	2.46	4.24	2.64	4.49	5.18
CUACACUUCAAGCAAUAGGUC [Fam1B.1 aminoacylation ribozyme variant]	1.06	0.542	0.44	0.585	0.527	0.506
AUUACCCUGAUCAUCGAGUGG [Fam2.1 aminoacylation ribozyme variant]	2.77	1.52	2.82	1.62	2.42	2.13
AAGUUUGCUAAUAGUAGCACG [Fam3.1 aminoacylation ribozyme variant]	1.39	0.814	0.733	0.764	0.619	0.766
AUUACCCUGGUCAGCAAGUGA [Fam2.1 aminoacylation ribozyme variant]	9.67	2.95	4.16	2.61	4	4.8
AUUCGCCUAGGUCAUCGGGAG [Fam2.2 aminoacylation ribozyme variant]	2.55	1.29	1.51	1.54	1.87	0.98
ACACACUGCAAGCAAUCGGUC [Fam1B.1 aminoacylation ribozyme variant]	1.36	1.43	1.23	1.33	1.48	1.73
CUACUUCAGACAAUCGAUCUG [Fam1A.1 aminoacylation ribozyme variant]	0.994	0.669	0.542	0.634	0.477	0.493
GAGUUUGCUCAUAGUCGCAAG [Fam3.1 aminoacylation ribozyme variant]	7.43	1.72	1.73	1.59	2.12	2.62

Sequence	self-aminoacylation (biotinyl-Phe-oxazolone)	self-aminoacylation (biotinyl-Ile-oxazolone)	self-aminoacylation (biotinyl-Met-oxazolone)	self-aminoacylation (biotinyl-Val-oxazolone)	self-aminoacylation (biotinyl-Leu-oxazolone)	self-aminoacylation (biotinyl-Trp-oxazolone)
AUUACCCUGGUCAUAGUGUGA [Fam2.1 aminoacylation ribozyme variant]	0.987	0.955	1.12	0.977	0.978	0.799
CUACUUCAAGCAAUCAGUCUG [Fam1A.1 aminoacylation ribozyme variant]	5.21	0.772	0.615	0.786	0.698	2.25
CCACAAUUCAAGCAAUCGUUC [Fam1B.1 aminoacylation ribozyme variant]	1.06	0.909	0.815	0.864	0.713	0.719
AUUACCCUGGUCAGCCAGUGA [Fam2.1 aminoacylation ribozyme variant]	46.3	5.41	9.13	5.21	10.6	11
CUACUUCAAAUAAUCGGGCUG [Fam1A.1 aminoacylation ribozyme variant]	4.76	0.911	0.607	0.85	0.965	3.35
AUUACGCUGAUCAUCGAGUGA [Fam2.1 aminoacylation ribozyme variant]	15	3.16	5.61	3.36	5.8	6.11
CCACACUACAAGCAACCGGUC [Fam1B.1 aminoacylation ribozyme variant]	1.03	1.29	0.649	0.674	0.948	0.793
CGACACUUCGAGCAAUCGGUC [Fam1B.1 aminoacylation ribozyme variant]	1.37	1.24	1.28	1.4	1.18	0.998
AUUACCCAGAUCAUCGAGUGA [Fam2.1 aminoacylation ribozyme variant]	15.2	3.1	5.55	2.99	5	7.37
ACUCACCUAAGUCAUCGGGUG [Fam2.2 aminoacylation ribozyme variant]	67.2	5.02	9.14	5.83	10.5	10.6
CCACACUUCAUGCAAUCGCUC [Fam1B.1 aminoacylation ribozyme variant]	0.603	0.99	1.36	1.06	1.1	0.588
AAGUUUGCAUAUAGUCGCAAG [Fam3.1 aminoacylation ribozyme variant]	0.843	0.762	0.636	0.961	0.744	0.826
AAGAUUGCUAAUGGUCGCAAG [Fam3.1 aminoacylation ribozyme variant]	1.11	1.21	1.51	1.14	1.07	1.06
AUUCACCUAGGUAAUGGGGUG [Fam2.2 aminoacylation ribozyme variant]	27.6	2.4	5.17	2.58	6.27	4.53
CCAGACUUCAAGCAAUCGGUA [Fam1B.1 aminoacylation ribozyme variant]	1.22	1.41	1.66	1.4	1.16	1.75
AUUCACCUGGAUCAUCGGGUG [Fam2.2 aminoacylation ribozyme variant]	15.1	2.55	2.39	3.08	3.12	3.31
CUACUCCAAACAAUCGGUCUU [Fam1A.1 aminoacylation ribozyme variant]	1.74	0.864	0.803	0.958	0.868	1.2
CUACUUCGAAGAAUCGGUCUG [Fam1A.1 aminoacylation ribozyme variant]	0.287	0.875	0.933	0.839	0.757	0.567
AUUACCCAGGUCUUCGAGUGA [Fam2.1 aminoacylation ribozyme variant]	39.3	3.65	5.69	3.61	6.86	8.2
CCACACUUCAAGUCAUCGGUC [Fam1B.1 aminoacylation ribozyme variant]	0.991	1.05	1.04	1.32	1.31	0.698
AUUAGCCUGGUCAUCUAGUGA [Fam2.1 aminoacylation ribozyme variant]	19.2	3.39	4.79	2.98	5.06	6.32
